Numbering of substitutions follows the chain as printed.
Molecular target: PPARa:RXRa (Homo sapiens, UniProt Q07869;P19793 full;full)
Assay: no ligand; PBM; 270 nM : 90 nM RXRa; PBS pH 7.4, 2% milk, 0.02% Triton X-100, 1 mM DTT, BSA, 0.4 mg/ml salmon testes DNA
Details: tags: GST kept;His cleaved; copies: 1;1; label: surface-attached array probe
Outline: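 Ligand-free nuclear receptor dimers were applied to custom Agilent 4×180K protein-binding microarrays whose double-stranded probes carried direct-repeat seeds, single-nucleotide variants, half-site ablations and random human genomic background sequences in 34-nt variable regions. Incubation lasted 1 h. Binding z-scores were computed against the random background probes from regression-normalized fluorescence.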

PPARa:RXRa, sequence (Q07869 whole entry, chain 1 of 2): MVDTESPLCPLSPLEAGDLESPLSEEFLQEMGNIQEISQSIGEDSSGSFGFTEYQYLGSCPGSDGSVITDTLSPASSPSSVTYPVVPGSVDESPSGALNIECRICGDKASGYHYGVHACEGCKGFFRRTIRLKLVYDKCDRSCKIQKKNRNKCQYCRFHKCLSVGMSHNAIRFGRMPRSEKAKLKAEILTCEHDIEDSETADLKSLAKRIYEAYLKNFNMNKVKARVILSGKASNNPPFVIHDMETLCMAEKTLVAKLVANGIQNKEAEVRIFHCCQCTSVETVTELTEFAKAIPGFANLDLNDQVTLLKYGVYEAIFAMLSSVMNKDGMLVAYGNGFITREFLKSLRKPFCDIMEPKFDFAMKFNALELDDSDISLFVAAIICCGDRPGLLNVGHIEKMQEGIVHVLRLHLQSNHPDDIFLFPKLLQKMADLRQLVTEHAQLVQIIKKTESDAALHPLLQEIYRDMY
PPARa:RXRa, sequence (P19793 whole entry, chain 2 of 2): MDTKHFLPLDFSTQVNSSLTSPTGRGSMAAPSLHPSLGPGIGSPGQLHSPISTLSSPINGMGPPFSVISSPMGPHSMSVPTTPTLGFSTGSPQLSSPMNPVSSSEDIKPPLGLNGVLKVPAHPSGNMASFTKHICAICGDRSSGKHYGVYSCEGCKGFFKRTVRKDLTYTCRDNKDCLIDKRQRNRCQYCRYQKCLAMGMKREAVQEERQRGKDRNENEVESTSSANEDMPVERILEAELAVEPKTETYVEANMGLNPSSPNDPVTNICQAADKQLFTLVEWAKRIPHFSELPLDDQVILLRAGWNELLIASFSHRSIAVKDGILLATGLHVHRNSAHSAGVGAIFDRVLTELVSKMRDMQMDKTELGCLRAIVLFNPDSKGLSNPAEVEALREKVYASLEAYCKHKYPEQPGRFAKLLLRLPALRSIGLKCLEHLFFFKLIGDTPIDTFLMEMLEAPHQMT

B1: NRC3_wobSeed20_DR0_C19T_o1 (dsDNA)
DNA 1: GCAGAATGAGGTTAAGATTAGGGAAACAGAATACATGCGATTGACAGCGTAGAATGAAGG
DNA 2: CCTTCATTCTACGCTGTCAATCGCATGTATTCTGTTTCCCTAATCTTAACCTCATTCTGC
binding signal: 3.39 PBM z-score against 500 random probes

B2: NRC3_wobSeed102_DR4_A9C_o1 (dsDNA)
DNA 1: GCCCTAGCCGGCCAATCTGGGTCACTCAAGGCTTGAGCGATTGACAGCGTAGAATGAAGG
DNA 2: CCTTCATTCTACGCTGTCAATCGCTCAAGCCTTGAGTGACCCAGATTGGCCGGCTAGGGC
binding signal: 3.14 PBM z-score against 500 random probes

B3: NRC3_wobSeed102_DR4_G11A_o1 (dsDNA)
DNA 1: B2 DNA 1 with C9A, G11A
DNA 2: B2 DNA 2 with C50T, G52T
binding signal: 3.03 PBM z-score against 500 random probes

B4: NRC3_wobSeed42_DR1_A14T_o1 (dsDNA)
DNA 1: GCTATACAGGGTCTAAGGCCAGAGTACGAATGTCGAGCGATTGACAGCGTAGAATGAAGG
DNA 2: CCTTCATTCTACGCTGTCAATCGCTCGACATTCGTACTCTGGCCTTAGACCCTGTATAGC
binding signal: 0.39 PBM z-score against 500 random probes

B5: NRC3_wobSeed34_DR1_A9G_o1 (dsDNA)
DNA 1: GCATCGAAGGGTCGAAGGTGAGTATACCCACCCGAAGCGATTGACAGCGTAGAATGAAGG
DNA 2: CCTTCATTCTACGCTGTCAATCGCTTCGGGTGGGTATACTCACCTTCGACCCTTCGATGC
binding signal: 3.17 PBM z-score against 500 random probes

B6: NRC3_wobSeed140_DR5_T15C_o1 (dsDNA)
DNA 1: GCAGAATGAGGTTACACGTAGATCAGGGAAGAAAGTGCGATTGACAGCGTAGAATGAAGG
DNA 2: CCTTCATTCTACGCTGTCAATCGCACTTTCTTCCCTGATCTACGTGTAACCTCATTCTGC
binding signal: 3.5 PBM z-score against 500 random probes

B7: NRC3_wobSeed43_DR1_G26C_o1 (dsDNA)
DNA 1: GCCCAGACAGGTGAAAGGTAACTCACTCTGGTACGCGCGATTGACAGCGTAGAATGAAGG
DNA 2: CCTTCATTCTACGCTGTCAATCGCGCGTACCAGAGTGAGTTACCTTTCACCTGTCTGGGC
binding signal: 3.54 PBM z-score against 500 random probes

B8: NRC3_wobSeed48_DR1_G5T_o1 (dsDNA)
DNA 1: GCCCTAGTAGGTTATGGGGCATTCAGGCAACGGTGAGCGATTGACAGCGTAGAATGAAGG
DNA 2: CCTTCATTCTACGCTGTCAATCGCTCACCGTTGCCTGAATGCCCCATAACCTACTAGGGC
binding signal: 3.05 PBM z-score against 500 random probes

B9: NRC3_wobSeed82_DR3_C13G_o1 (dsDNA)
DNA 1: GCATCGAAAGGTGGACGAGGTGAGTATACACCGTTTGCGATTGACAGCGTAGAATGAAGG
DNA 2: CCTTCATTCTACGCTGTCAATCGCAAACGGTGTATACTCACCTCGTCCACCTTTCGATGC
binding signal: 0.49 PBM z-score against 500 random probes

B10: NRC3_wobSeed7_DR0_T6G_o1 (dsDNA)
DNA 1: GCTCAGATAGGTAAAGGTGAAAGTCGAACGATATGAGCGATTGACAGCGTAGAATGAAGG
DNA 2: CCTTCATTCTACGCTGTCAATCGCTCATATCGTTCGACTTTCACCTTTACCTATCTGAGC
binding signal: 3.2 PBM z-score against 500 random probes

B11: NRC3_wobSeed116_DR4_A6T_o1 (dsDNA)
DNA 1: GCAGATTGAGGTTACCAAAGATCAGGGAAACGCTTGGCGATTGACAGCGTAGAATGAAGG
DNA 2: CCTTCATTCTACGCTGTCAATCGCCAAGCGTTTCCCTGATCTTTGGTAACCTCAATCTGC
binding signal: 3.29 PBM z-score against 500 random probes

B12: NRC3_wobSeed98_DR4_A28T_o1 (dsDNA)
DNA 1: GCACTAGTTGGTCAGCTGAGGTCACACTCAATTCGGGCGATTGACAGCGTAGAATGAAGG
DNA 2: CCTTCATTCTACGCTGTCAATCGCCCGAATTGAGTGTGACCTCAGCTGACCAACTAGTGC
binding signal: 3.53 PBM z-score against 500 random probes

B13: NRC3_wobSeed38_DR1_o1 (dsDNA)
DNA 1: GCCCTGCTAGGTCAATGGTCAGCTAAAGCAGCTCGCGCGATTGACAGCGTAGAATGAAGG
DNA 2: CCTTCATTCTACGCTGTCAATCGCGCGAGCTGCTTTAGCTGACCATTGACCTAGCAGGGC
binding signal: 3.19 PBM z-score against 500 random probes

B14: NRC3_wobSeed69_DR2_C15G_o1 (dsDNA)
DNA 1: GCAGTCAAAGTTCAGTAGGTAACGTAAGATTCAGCTGCGATTGACAGCGTAGAATGAAGG
DNA 2: CCTTCATTCTACGCTGTCAATCGCAGCTGAATCTTACGTTACCTACTGAACTTTGACTGC
binding signal: 3.56 PBM z-score against 500 random probes

B15: NRC3_wobSeed54_DR2_G15T_o1 (dsDNA)
DNA 1: GCTCTAGCAGGCCATAGGGTCACTCAAGAGGTACGGGCGATTGACAGCGTAGAATGAAGG
DNA 2: CCTTCATTCTACGCTGTCAATCGCCCGTACCTCTTGAGTGACCCTATGGCCTGCTAGAGC
binding signal: 3.24 PBM z-score against 500 random probes

B16: NRC3_wobSeed50_DR2_A17T_o1 (dsDNA)
DNA 1: GCCCTAGTTGGTCAGGTGGTCACACACCGGATATGAGCGATTGACAGCGTAGAATGAAGG
DNA 2: CCTTCATTCTACGCTGTCAATCGCTCATATCCGGTGTGTGACCACCTGACCAACTAGGGC
binding signal: 0.4 PBM z-score against 500 random probes

B17: NRC3_wobSeed47_DR1_A5T_o1 (dsDNA)
DNA 1: GCGGTACGAGGGCAAAGTTGATAGCATCTGTCGACGGCGATTGACAGCGTAGAATGAAGG
DNA 2: CCTTCATTCTACGCTGTCAATCGCCGTCGACAGATGCTATCAACTTTGCCCTCGTACCGC
binding signal: 3.22 PBM z-score against 500 random probes

B18: NRC3_wobSeed64_DR2_G18T_o1 (dsDNA)
DNA 1: GCTAGCCTAGGTCATTGTGCCAGTATAGTACGCATCGCGATTGACAGCGTAGAATGAAGG
DNA 2: CCTTCATTCTACGCTGTCAATCGCGATGCGTACTATACTGGCACAATGACCTAGGCTAGC
binding signal: 3.37 PBM z-score against 500 random probes

B19: NRC3_wobSeed99_DR4_A24T_o1 (dsDNA)
DNA 1: GCTCTCGGAGGACACGAAAGGTCTGAGCTCGACATCGCGATTGACAGCGTAGAATGAAGG
DNA 2: CCTTCATTCTACGCTGTCAATCGCGATGTCGAGCTCAGACCTTTCGTGTCCTCCGAGAGC
binding signal: 0.43 PBM z-score against 500 random probes

B20: NRC3_wobSeed4_DR0_G16T_o1 (dsDNA)
DNA 1: GCCCTACTGGGCCAATGTCATTGATCAGTCAAAGCAGCGATTGACAGCGTAGAATGAAGG
DNA 2: CCTTCATTCTACGCTGTCAATCGCTGCTTTGACTGATCAATGACATTGGCCCAGTAGGGC
binding signal: 0.47 PBM z-score against 500 random probes

B21: NRC3_wobSeed26_DR1_A21T_o1 (dsDNA)
DNA 1: GCTCTAGTTGGTCAAAGGTCTCACACTCGAAATGCGGCGATTGACAGCGTAGAATGAAGG
DNA 2: CCTTCATTCTACGCTGTCAATCGCCGCATTTCGAGTGTGAGACCTTTGACCAACTAGAGC
binding signal: 3.41 PBM z-score against 500 random probes

B22: NRC3_wobSeed26_DR1_T19C_o1 (dsDNA)
DNA 1: B21 DNA 1 with T19C, T21A
DNA 2: B21 DNA 2 with A40T, A42G
binding signal: 3.15 PBM z-score against 500 random probes

B23: NRC3_wobSeed6_DR0_G15C_o1 (dsDNA)
DNA 1: GCCCTAGCAGGCCACGGTCACTCAAGCATTTCGCTTGCGATTGACAGCGTAGAATGAAGG
DNA 2: CCTTCATTCTACGCTGTCAATCGCAAGCGAAATGCTTGAGTGACCGTGGCCTGCTAGGGC
binding signal: 0.43 PBM z-score against 500 random probes

B24: NRC3_wobSeed137_DR5_A25T_o1 (dsDNA)
DNA 1: GCATATGTAGGTTACATCCGGGTCTTTCAGGCTATGGCGATTGACAGCGTAGAATGAAGG
DNA 2: CCTTCATTCTACGCTGTCAATCGCCATAGCCTGAAAGACCCGGATGTAACCTACATATGC
binding signal: 3.32 PBM z-score against 500 random probes

B25: NRC3_wobSeed137_DR5_A14C_o1 (dsDNA)
DNA 1: B24 DNA 1 with A14C, T25A
DNA 2: B24 DNA 2 with A36T, T47G
binding signal: 3.09 PBM z-score against 500 random probes

B26: NRC3_wobSeed110_DR4_T27G_o1 (dsDNA)
DNA 1: GCTCTGCTAGGTCAACGATGGTCAGCGAATCTGCTAGCGATTGACAGCGTAGAATGAAGG
DNA 2: CCTTCATTCTACGCTGTCAATCGCTAGCAGATTCGCTGACCATCGTTGACCTAGCAGAGC
binding signal: 3.11 PBM z-score against 500 random probes

B27: NRC3_wobSeed141_DR5_C26T_o1 (dsDNA)
DNA 1: GCAGTCAAAGTTCAGGACGAGGTAATGTAAAGCACGGCGATTGACAGCGTAGAATGAAGG
DNA 2: CCTTCATTCTACGCTGTCAATCGCCGTGCTTTACATTACCTCGTCCTGAACTTTGACTGC
binding signal: 3.3 PBM z-score against 500 random probes

B28: NRC3_wobSeed141_DR5_T5A_o1 (dsDNA)
DNA 1: B27 DNA 1 with T5A, T26C
DNA 2: B27 DNA 2 with A35G, A56T
binding signal: 3 PBM z-score against 500 random probes

B29: NRC3_wobSeed2_DR0_A20T_o1 (dsDNA)
DNA 1: GCCCTAGTTGGTCAAGGTCTCACACGCTATAGGTACGCGATTGACAGCGTAGAATGAAGG
DNA 2: CCTTCATTCTACGCTGTCAATCGCGTACCTATAGCGTGTGAGACCTTGACCAACTAGGGC
binding signal: 0.37 PBM z-score against 500 random probes

B30: NRC3_wobSeed14_DR0_C22G_o1 (dsDNA)
DNA 1: GCCCTGCTAGGTCATGGTCAGGTAATCTACAGTATGGCGATTGACAGCGTAGAATGAAGG
DNA 2: CCTTCATTCTACGCTGTCAATCGCCATACTGTAGATTACCTGACCATGACCTAGCAGGGC
binding signal: 3.51 PBM z-score against 500 random probes

B31: NRC3_wobSeed14_DR0_T5C_o1 (dsDNA)
DNA 1: B30 DNA 1 with T5C, G22C
DNA 2: B30 DNA 2 with C39G, A56G
binding signal: 3.35 PBM z-score against 500 random probes

B32: NRC3_wobSeed72_DR2_A22G_o1 (dsDNA)
DNA 1: GCTCGAGTAGGTTACGGGGGCGTTCAGGGATGAAGAGCGATTGACAGCGTAGAATGAAGG
DNA 2: CCTTCATTCTACGCTGTCAATCGCTCTTCATCCCTGAACGCCCCCGTAACCTACTCGAGC
binding signal: 3.48 PBM z-score against 500 random probes

B33: NRC3_wobSeed75_DR3_G24A_o1 (dsDNA)
DNA 1: GCTCTCGGAGGACACGAAGGTCAAAGCTTTCCAGAGGCGATTGACAGCGTAGAATGAAGG
DNA 2: CCTTCATTCTACGCTGTCAATCGCCTCTGGAAAGCTTTGACCTTCGTGTCCTCCGAGAGC
binding signal: 3.46 PBM z-score against 500 random probes
